The assay addresses T1, recombinant human HSP90beta (Homo sapiens, UniProt P08238).
T1 construct: purchased Dr. S. Rüdiger, Cellular Protein Chemistry, Utrecht University
In words: ELISA: binding of HSP90 to immobilized (misfolded) protein ligands. Conditions: 5 mM DTT in binding buffer. Here is the method: Recombinant human HSP90beta was bought from Dr. S. Rüdiger (Cellular Protein Chemistry, Department of Chemistry, Faculty of Science, Utrecht University). HSP90beta eluted from an anion exchange column was supplied in 35 mM Bis-Tris/25mM Tris, 5 mM DTT, approximately 385 mM NaCl, approximately pH 9.0. The HSP90beta concentration was 5.0 μM (450 μg/ml with a MW of 90.000 Da; extinction coefficient of 53740 l/(mol*cm)). The supplied frozen stock is kept at −80° C. Before use, the stock is quickly thawed almost completely in a 37° C. water bath, and kept at wet ice. Before use, the HSP90beta solution is centrifuged for 5 minutes at 16,000*g at 4° C. During dilution of HSP90beta solution, 5 mM DTT should be incorporated in the dilution buffer, to keep free Cys residues. Thawed HSP90beta was aliquoted and snap frozen in liquid nitrogen before re-storage at −80° C.
Binding of chaperones to immobilized (misfolded) protein ligands was determined using an enzyme linked immuno sorbent assay (ELISA) approach. […] After 5 washes with wash buffer followed by two washes with PBS, binding of antibodies was assessed. […] Plates were read at 450 nm. Triplicates were averaged and standard deviations calculated. […]

From patent US20100015126A1, “Methods of Binding of Cross-Beta Structures By Chaperones” (priority 2006, published 2010) come the findings set out here.

T1 sequence (P08238 whole entry): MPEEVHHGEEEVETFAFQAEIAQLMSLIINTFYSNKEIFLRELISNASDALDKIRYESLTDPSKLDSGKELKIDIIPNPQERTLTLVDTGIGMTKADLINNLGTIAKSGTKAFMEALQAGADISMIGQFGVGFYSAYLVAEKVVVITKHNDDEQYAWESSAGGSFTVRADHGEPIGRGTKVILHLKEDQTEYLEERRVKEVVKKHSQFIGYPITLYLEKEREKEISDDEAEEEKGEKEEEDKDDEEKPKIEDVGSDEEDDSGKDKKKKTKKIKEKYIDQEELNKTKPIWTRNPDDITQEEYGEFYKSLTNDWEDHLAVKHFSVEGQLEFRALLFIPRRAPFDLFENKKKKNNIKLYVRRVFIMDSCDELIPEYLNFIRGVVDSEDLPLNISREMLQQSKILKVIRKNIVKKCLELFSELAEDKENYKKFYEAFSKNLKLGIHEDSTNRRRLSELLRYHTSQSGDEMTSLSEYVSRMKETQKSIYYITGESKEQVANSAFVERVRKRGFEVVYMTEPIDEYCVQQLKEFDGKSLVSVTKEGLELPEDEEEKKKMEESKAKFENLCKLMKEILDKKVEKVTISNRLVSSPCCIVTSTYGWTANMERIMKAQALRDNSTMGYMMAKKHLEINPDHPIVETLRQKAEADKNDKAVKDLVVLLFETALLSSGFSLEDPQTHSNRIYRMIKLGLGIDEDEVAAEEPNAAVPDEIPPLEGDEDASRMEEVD

B1: dOVA standard: heat-denatured chicken ovalbumin (protein)
chain: GSIGAASMEFCFDVFKELKVHHANENIFYCPIAIMSALAMVYLGAKDSTRTQINKVVRFDKLPGFGDSIEAQCGTSVNVHSSLRDILNQITKPNDVYSFSLASRLYAEERYPILPEYLQCVKELYRGGLEPINFQTAADQARELINSWVESQTNGIIRNVLQPSSVDSQTAMVLVNAIVFKGLWEKAFKDEDTQAMPFRVTEQESKPVQMMYQIGLFRVASMASEKMKILELPFASGTMSMLVLLPDEVSGLEQLESIINFEKLTEWTSSNVMEERKIKVYLPRMKMEEKYNLTSVLMAMGITDVFSSSANLSGISSAESLKISQAVHAAHAEINEAGREVVGSAEAGVDAASVSEEFRADHPFLFCIKHIATNAVLFFGRCVSP
Turning to B1, the “Binding of concentration series of HSP90 to coated ligand” value is on record as “did also not bind”.
